In US20250122303A1 (HUMMINGBIRD BIOSCIENCE PTE, published 2025):

What was measured:
His-tagged human HER3 [1] = molecular target: T1, His-tagged human HER3 (human, UniProt P21860 20-643); test: BLI (Octet QK384), antibody on anti-human IgG capture tips, His-tagged human HER3 35-278 nM, global 1:1 fit; kdis Error 1.15E-04
T1 construct: Antigen of the BLI experiments and of the HER2-Fc dimerisation ELISA; also called HER3 His; not shown: His tag
Description: (§1) The anti-HER3 antibody clones in IgG1 format were analysed for binding affinity to human HER3. Bio-Layer Interferometry (BLI) experiments were performed using the Octet QK384 system (ForteBio). anti-Human IgG Capture (AHC) Octet sensor tips (Pall ForteBio, USA) were used to anti-HER3 antibodies (25 nM). All measurements were performed at 25° C. with agitation at 1000 rpm. […] Sensograms were referenced for buffer effects and then fitted using the Octet QK384 user software (Pall ForteBio, USA). Kinetic responses were subjected to a global fitting using a one site binding model to obtain values for association (Kₒₙ), dissociation (Koff) rate constants and the equilibrium dissociation constant (KD). Only curves that could be reliably fitted with the software (R²>0.90) were included in the analysis.

His-tagged human HER3 [2] = molecular target: T1, His-tagged human HER3; test: BLI (Octet QK384), antibody captured on AHC sensors, His-tagged human HER3 in solution, without NRG1
Description: Binding of anti-HER3 antibodies to human HER3 was evaluated by BLI. Briefly, anti-Human IgG Capture (AHC) sensors (ForteBio) were loaded with anti-HER3 IgG antibodies (25 nM). Kinetic measurements were performed in absence or presence of NRG1. NRG1 was used at 1:1 molar ratio with HER3 wherein the complex was allowed to form at RT for 2 h. […] All measurements were performed at 25° C. with agitation at 1000 rpm. Sensorgrams were referenced for buffer effects and then analyzed using the Octet QK384-software (ForteBio). Kinetic responses were globally fitted using a one-site binding model to obtain values for association (Kₒₙ), dissociation (Koff) rate constants and the equilibrium dissociation constant (KD).

human HER3 polypeptide [3] = molecular target: T2, human HER3 polypeptide (human, UniProt P21860 20-643); test: BLI; after 15 days at 40 °C/80% RH
T2 construct: Recombinant antigen of the ELISAs; also called human HER3 (Sino Biological Inc.); human antigen HER3

hCD16a = molecular target: T3, hCD16a (human, UniProt P08637 17-208, limits assumed); test: BLI; after 15 days at 40 °C/80% RH
T3 construct: also called human CD16a

[4] = molecular target: T4, human HER3 expressed on cells (HEK293 HER3 O/E cells) (human, UniProt P21860 20-1342); test: flow cytometry, HEK293 cells overexpressing human HER3 (293_OE HER3), 20 ug/ml antibody, FITC anti-Fc secondary; same antibody on 293 cells: 2.78; unstained 293: 0.14
T4 construct: Also used here for HER3 on U2OS cells of the PathHunter kit and on cancer cell lines; also called HEK293 cells transfected with vector encoding human HER3; human HER3-expressing cells

human HER3 polypeptide [5] = molecular target: T2, human HER3 polypeptide; test: ELISA, plate coated with human HER3, antibody titrated, absorbance 450 nm, x axis Log([Ab]) (ug/ml)
[6] = molecular target: T5, recombinant biotinylated human HER3 protein (human, UniProt P21860 20-643, limits assumed, biotinylated, site not stated); test: plate ELISA dimerisation assay; human EGFR-His coated, constant HER3-biotin and NRG, antibody varied; blocked partner EGFR-His
T5 construct: also called HER3-biotin
Description: Plate-based ELISA dimerisation assays were performed according to standard protocols. Plate was coated with 1 μg/ml human EGFR-His. […] Plates were then washed and incubated for 1 hour with secondary anti-avidin HRP antibody. […] The absorbance was read at 450 nm.

moFcgRIV = molecular target: T6, moFcgRIV; test: Bio-Layer Interferometry (determined as described in Example 7)
T6 construct: also called CD16-2; mFcγRIV
T6 chain: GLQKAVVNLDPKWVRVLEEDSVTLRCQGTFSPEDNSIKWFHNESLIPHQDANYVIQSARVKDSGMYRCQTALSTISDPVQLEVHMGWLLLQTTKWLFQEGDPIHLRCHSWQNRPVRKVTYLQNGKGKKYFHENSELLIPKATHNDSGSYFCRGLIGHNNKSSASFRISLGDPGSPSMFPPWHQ

moFcRn = molecular target: T7, moFcRn (mouse, UniProt Q61559); test: as above
T7 construct: recombinant; also called mouse FcRn; gene FCGRT (so in the source)
T7 sequence (receptor, looked up): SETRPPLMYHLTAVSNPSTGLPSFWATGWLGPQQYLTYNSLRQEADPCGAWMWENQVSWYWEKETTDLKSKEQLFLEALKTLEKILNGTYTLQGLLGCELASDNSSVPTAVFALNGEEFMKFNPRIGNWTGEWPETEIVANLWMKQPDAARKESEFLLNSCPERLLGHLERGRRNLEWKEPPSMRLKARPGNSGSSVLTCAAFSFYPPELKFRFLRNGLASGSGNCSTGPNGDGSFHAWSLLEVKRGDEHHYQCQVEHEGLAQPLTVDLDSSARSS
T7 sequence (looked up): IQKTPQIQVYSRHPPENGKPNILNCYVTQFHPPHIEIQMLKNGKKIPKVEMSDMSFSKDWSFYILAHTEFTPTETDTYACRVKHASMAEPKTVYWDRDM

His-tagged human HER3 [7] = molecular target: T1, His-tagged human HER3; test: BLI (Octet QK384), antibody on anti-human IgG capture tips, His-tagged human HER3 in solution, global 1:1 fit, R^2 = 0.9902, kon Error 1.12E+04; Response 0.1471 / 0.2882 / 0.3968 / 0.5458 at 35 / 69 / 139 / 278 nM
Description: as §1

His-tagged human HER3 [8] = molecular target: T1, His-tagged human HER3; test: Bio-Layer Interferometry (Octet QK384); antibody on anti-Human IgG Capture tips, HIS-tagged human HER3 at 35, 69, 139 and 278 nM

B1: 10D1F.FcA (anti-HER3 clone 10D1_c89 IgG1) (antibody)
heavy: not shown
light: DIQMTQSPSSVSASVGDRVTITCKASQIVGSNVAWYQQKPGKAPEPLIYSASYLYSGVPSRFSGSGSGTDFTLTISSLQPEDFATYYCQQYSSHPLTFGQGTKLEIKRTVAAPSVFIFPPSDEQLKSGTASVVCLLNNFYPREAKVQWKVDNALQSGNSQESVTEQDSKDSTYSLSSTLTLSKADYEKHKVYACEVTHQGLSSPVTKSFNRGEC
notes: also called 10D1F.A; HMBD-001
Question: With B1 as the binder, how does the koff (His-tagged human HER3 [1]) read?
Answer: Its koff is 2.16e-05 s⁻¹.

Question: What about the Kd (His-tagged human HER3 [2]) of the same binder?
Answer: Its Kd is < 0.001 nM.

Question: And the koff (His-tagged human HER3 [2])?
Answer: The koff was < 1e-07 s⁻¹.

Question: And the kon (His-tagged human HER3 [2])?
Answer: The kon was 199000 M⁻¹ s⁻¹.

Question: And the Kd (human HER3 polypeptide [3])?
Answer: Its Kd is < 0.001 nM.

Question: And the Kd (hCD16a)?
Answer: Its Kd is 265 nM.

Question: And the “% Parent (HER3 positive)” value [4]?
Answer: Its value is 44.6%.

Question: And the “EC50 (read off the curve)” value (human HER3 polypeptide [5])?
Answer: Its value is ~2 ng/mL.

Question: And the IC50 [6]?
Answer: The IC50 was 4.78 nM.

Question: What about the Kd (moFcgRIV) of the same binder?
Answer: The Kd was 1810 nM.

Question: What about the Kd (moFcRn) of the same binder?
Answer: Its Kd is 14.6 nM.

Question: What about the kon (His-tagged human HER3 [7]) of the same binder?
Answer: The kon was 297000 M⁻¹ s⁻¹.

Question: What about the Kd (His-tagged human HER3 [8]) of the same binder?
Answer: The Kd was 0.0726 nM.

Question: What about the koff (His-tagged human HER3 [8]) of the same binder?
Answer: The koff was 2.16e-05 s⁻¹.

Question: What about the kon (His-tagged human HER3 [8]) of the same binder?
Answer: The kon was 297000 M⁻¹ s⁻¹.
